B1: BaeS sensory kinase tagged with monomeric yellow fluorescent protein (BaeS-mYFP) [E. coli] / itself (parent)
chain: MKFWRPGITGKLFLAIFATCIVLLISMHWAVRISFERGFIDYIKHGNEQRLQLLSDALGEQYAQHGNWRFLRNNDRFVFQILRSFEHDNSEDKPGPGMPPHGWRTQFWVVDQNNKVLVGPRAPIPPDGTRRPILVNGAEVGAVIASPVERLTRNTDINFDKQQRQTSWLIVALATLLAALATFLLARGLLAPVKRLVDGTHKLAAGDFTTRVTPTSEDELGKLAQDFNQLASTLEKNQQMRRDFMADISHELRTPLAVLRGELEAIQDGVRKFTPETVASLQAEVGTLTKLVDDLHQLSMSDEGALAYQKAPVDLIPLLEVAGGAFRERFASRGLKLQFSLPDSITVFGDRDRLMQLFNNLLENSLRYTDSGGSLQISAGQRDKTVRLTFADSAPGVSDDQLQKLFERFYRTEGSRNRASGGSGLGLAICLNIVEAHNGRIIAAHSPFGGVSITVELPLERDLQREV

Variants of: B1
Test: fluorescence anisotropy (homo-FRET) on cells
Settings: with itself; ΔbaeS cells; Copper (10 μM) added at about 45 sec; plateau read at about 200-300 sec, before EDTA (100 μM); parent: 0.79; read off a plot

For MKFWRPGITGKLFLAIFATCIVLLISMHWAVRISFERGFIDYIKAGNEQRLQLLSDALGEQYAQAGNWRFLRNNDRFVFQILRSFEADNSEDKPGPGMPPAGWRTQFWVVDQNNKVLVGPRAPIPPDGTRRPILVNGAEVGAVIASPVERLTRNTDINFDKQQRQTSWLIVALATLLAALATFLLARGLLAPVKRLVDGTHKLAAGDFTTRVTPTSEDELGKLAQDFNQLASTLEKNQQMRRDFMADISHELRTPLAVLRGELEAIQDGVRKFTPETVASLQAEVGTLTKLVDDLHQLSMSDEGALAYQKAPVDLIPLLEVAGGAFRERFASRGLKLQFSLPDSITVFGDRDRLMQLFNNLLENSLRYTDSGGSLQISAGQRDKTVRLTFADSAPGVSDDQLQKLFERFYRTEGSRNRASGGSGLGLAICLNIVEAHNGRIIAAHSPFGGVSITVELPLERDLQREV [chain 1 H45A H65A H87A H101A], which response is on record?
Its response is 0.95 r/r0.
